From the supplement of paper PMC12636428

Tested on: Saccharomyces cerevisiae
Assay: transcriptional activation domain activity (GFP:mCherry ratio, weighted mean of sorted bins, harmonized to initial dataset scale) (arbitrary fluorescence ratio units); higher = stronger transcriptional activation
Conditions: beta-estradiol 1 µM; induction time 4 h
Method in brief: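 Each value is an activation activity: the read-weighted mean of bin median fluorescence, averaged across barcodes, then mapped linearly to the initial dataset scale. The tiles, fused to an estradiol-inducible synthetic transcription factor, sat at the yeast URA3 locus in GFP-reporter diploids. Cells spent 4 hours at 30 °C in SC with 1 uM beta-estradiol before sorting into 8 GFP:mCherry bins, and tiles below 50 reads were removed.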

Row | Sequence | transcriptional activation domain activity
1 | DDAVVESFFSSSTDSTPMFEYENLEDNSKEWTSLFDNDIPVTTDDVSLADKAI | 114000
2 | RGKQPYRWTIWIYLGTRYSCLLMFITFFILNHAGHALCKPLILMNYVFNIVSW | 41700
3 | SMLNGFAGLDDIPMENILRFLNRFVVNNLLLDILCQCSRHARRTLAGNIFRAA | 47000
4 | LYYMECSFFRLIIRWIPHWLFLSVKADHVILPLPNHPVGAIIGPNLFCIFLHI | 50900
5 | ANLAFPDDNSTNIQLQPFSESQSQNKFDYDMFFRDSSKEGNNLFGEFLEDDDD | 92800
6 | FTMLIGRKRPDVSTCVLIAVVISQCLFYVVVFFVKILGLVKYFLLFSSLADKL | 56300
7 | RKLRDVHVPEVPLPLGPDGKADRKKSSLIMVHYVLMHSREVILLCLHRSFFAQ | 65300
8 | MRLHCFFLFVFFFSLFSFLLATLCHSPLPLPFVHVSFFPPSLLPLPIFALDPF | 33100
9 | MRIFVFFSLLFLFFFCYMYYICLLLFCTLQTYIFILYHIIPYSILIYIYYISN | 59200
10 | RPYLLLLHLLCSFFFFESISIILAIAFQLLLIRASSHMIIRMLLQVYCFLSMR | 75900
11 | SISFIGHRMMFWFFACVGLACLFMAGALAVMCLHYLLMIFLFYLRCYPPYLGS | 31900
12 | MHGTGVFFGCLGIHIFFFLSSLLFHVDIFVIRDIFFNFLLFFFIFFLRILYSM | 42700
13 | WYGFLVTWGLLVLFIICFYFFISVSCCAFCVLFSSTWSFGRLFLLTFPLILLL | 41700
14 | YINAMLGLPRSISPDDFDQTLPLDLSDENITEVAYLPENQHSVLSSTGISNEH | 58400
15 | GPIFILLNYIFLAMLWLKNYRPHHLHILIRTRPYVYVTSNLPRLRFLFRHFLF | 48300
16 | FFHVTIRVASQSCGIAFGILGFSNFRVFLAYLILGAEGYFTLVLCAFRFLISW | 61100
17 | KYNLALILAGFFRFIPWISVLLLLLLSLSPRARSLFPWPISSILLLYTLADTI | 39400
18 | MVLLSRLIFVAVILSLTGCRSQLESRCMVFGYRRVLVVVVRAISSCAALLRCA | 71100
19 | EEDAGATSEPASTPKLKPETKPKPKAAPKPKPKAEETDSSAKPKAKPKARASS | 33000
20 | DSNYLAFLKFDDLENEKFHSSASSISSPSYSSPSFSSYRNRKKSEFMDDESCT | 73200
21 | LIHFFRLYRSGHGPIRMFFLHIQALYNLFNLIFSWFALANLWLTFSIIIRLVP | 70000

Row | Sequence | transcriptional activation domain activity
22 | MLHSISTYLIFPLLYLFILSFNIYHFFFFSLKIITILIFLHTFVLLLFSWRKY | 60400
23 | VERCHRNIVTNGCAVFQAGGLVVVLVEVNRKSYLASIVPVIVNAILNEHQIIV | 40900
24 | RPPPRPPPQTPASPSPSPTSTTPPRSPSASRASPARPHPPSGRRTRTTRAPRR | 56300
25 | IDDFEQFRTEYTIDLSDFQNTERLKFLEEYYWKTLNFTTPMYGADTPGSIFPE | 93300
26 | ASNAPGTGASRSAAAAATAAISRAKGAAQQQQAQKKPDASSSRPAGKQPAVKE | 26900
27 | AALLHLIILISFGNLLLVPKCCLLVHTLRFWCRVFFLNPSLVLSFALSTFIYS | 58900
28 | TLLFQIVIAFIDILRHLSLYKIEIENDTICALVGASMNFSDHIYVAFNTLLAI | 49500
29 | MFCLRSWLPLLFIPTNASPIFIFLFFVSTYFLNRPCVYCSFLLLILFASSCHW | 52500
30 | AKGEAEPKAKAKGKGKAKAQAESEGEEEEEEEEEEEVKGKGKSRAKSKPKAKA | 53900
31 | FALTFFWSLIGYWVPFFEAIHLFWWIGYRANYVPLMSADVAWRWFFKWDFPFF | 62000
32 | DGEATATPAKPKTPRKRKVKAADSAEEGTGDAEGSPKKKAGGRKKKADVAVKE | 38600
33 | MEGRHISVIKQLYGLYWLDVWKISLQLWSEVKGMYHVLQQNLWIITLFPFFAA | 64000
34 | FPCFFISLFPCLLSLSISLFPCLVISLSFFLISLFPFLFLFFPFLSFSLFPYF | 68500
35 | MYCMRYFVPLLLLPFPDAPPVFVILFLISFFLHQKPCIYCTLLLIALFCSTCY | 72300
36 | PADDPQPAPATPKRRGRPPKNPKPAEEPKPAEEDPQPVPATTPKKRGRPPKAS | 26100
37 | IQAEGLYQCRYRSYGIECIRYIFFFAMFGFLLKSEWYLSSAFFLGCLWHQLAF | 25300
38 | MLPSPGETKNHAKSQSEIIQMLTDEFWANYNSGWEELINQSEFSTLFDDYKDN | 116000
39 | MAPTTPTNSNGETPVKRGRGRPPKPEHEKKLKPAPSGRGRGRPKGSGVKKTGG | 39100
40 | YPFLLKLCFDIFLLPLHFFYFPFFFSLITHYIFFFTGTLSHLYICFILLCLFL | 36400
41 | AKSNKRRRASAPSSNTFKGSKRSASNASSQSKASNSNRVIKRARRASSASTKK | 20900
42 | YLHAVLCELQSSFNRKATTRSKLTHTPNLPEYTFPFAWLTLPFAAARRCTPAG | 66600

Row | Sequence | transcriptional activation domain activity
43 | HCCRLLFLLFLFLFFFLLLFICFFLRLLRLLFPHRNTNLTRPIADPIIPIIPP | 46900
44 | AESQLTLRAIVSSKEAGVIIGKGGKNVADLRDETGCKAGVSKVVQGVHDRVLT | 22300
45 | MFENFSLLLSSLCFFPLSLFFCFFFLFPLSSFFFFVFLLAFCFCCFRFSLFFF | 18100
46 | MFLGFFFLFFYLFIMDHILDFWLLLRIIILIFAYSHCSFLRTLILFFRINFFF | 69000
47 | MSRQPVRAIFLYDILLFFLSGRSIDFVLIFSTWPFFFSFFLSFSLPPYFYFIL | 71500
48 | HAEPGTGWACVKHTSDCTAVKKASGIPGRNFHRRPKYSVVVSAGERTWKAKQC | 52400
49 | IEKLGITVLQREVVNNGLEISHDFRALRVALCARQPLLQVVWFKNHLPSVYYF | 69900
50 | MIRPFSIYSITLDVFPWLLNLFFLFFFLILFPLLRNFLFCVVSLIQNIQPLCF | 30400
51 | MHYVFLPFFFFFLLFFLLFPLFFFFLPSFHLLLFLSSSLLLSFLSLAPATSHH | 38800
52 | SSQPTKKPTPTTTTTTTTTTTTTTTTTTTTTEKPHTTHHTTHTTTTTTTKKAE | 36700
53 | AEDKARKEAEDKAREEAEEKAREEQEEAARARADAEAKKAALEAKREAEAKAK | 16300
54 | AAPSKPASPTKAAAPVSKPVTPAPQKAAPVQQQSKPATPAPQQKAATPAPKTA | 29500
55 | MARNIYVIYIPKSICCSLPLSVPLSLLPLPSLPLFPSLTSTLLFFVLFHFFLL | 49600
56 | VLLFLFVWRWGRRAFWQLRGRGIIGSVVELYVNIRRILYGYFLRAPGVRNKVQ | 44100
57 | KEEAPAEEQEKEEKKEKVPLSDARKGRARGPQRRAPAAAKAAAAAAAAPAPAV | 34400
58 | TRSFNIMLGMVTFWGVFSLFAIAFQCGLPAPWVFIPSECPTGGYLYYPVIILN | 56000
59 | QESIPHQVGFSTPQLTAQQLIENAIESGVVDLETLDLPPFLSLDGLPPASSSA | 116000
60 | FRLAFMLICVDVFLALFHILDYVLYIPSRVCTFSAWGTLTCELMTIFLNVTIA | 52500
61 | LPTINTAIPTAAVPQQNIAPPFLNTNSSATDSNPNTNLEDSLFFDHDLLSSSI | 49800
62 | RGEILESKFGRSSKPSPRILIVSNSKFYIVAQALVNHQVQISVERSVPLGAIK | 51900
63 | DEEQDRSHRHRRSRSASPRRHKSGNEARERDRHGDDHSRRHRRRRSHERSHRH | 48700

Row | Sequence | transcriptional activation domain activity
64 | LSVSLVYNSAYLLQRISFWVISFSTYTLPTWLFTLFSTSLTFTMNFTTLLIIV | 78700
65 | YCDAKPGHSLVFAGHAGELELYLDKSCDADSIMTRENLGSLNRFVRLLLLLAK | 38300
66 | GSKMLTEFKKKLRLDYFMLLDLRLWKDMRMCLRKLFISTLIANLSYKRILGLR | 61700
67 | TGGAGATRTSKAKADRHVTQAGHRRLRAQAACERCRRRKLKCEPSGASCVACV | 48800
68 | MIYACGLICFYFFFFFLYFFPFCISFHIFLFSFLYPSCSFSFLQHCQVGTGVC | 48900
69 | KLGFQVLVQVILVIWYKPDKIPSAVNVDKEIKKGEPVDNKARVLVECVLDVFQ | 51700
70 | MGLGVLYHLSLLFPSFSFFYLSSSFPPFFFFFLLLWLFPISCLGFLVLFWTGS | 61300
71 | CTYVRESIKQFNGTYSKALEVRQRSIQFLGQRTKLCWYWLMLRYHLSTLMLVD | 39700
72 | MKAEYITLINLLVHPSFVLWESPLPTLSFFFFFFFFLAWSPFRVFSLFVIPSL | 50300
73 | WYTTISSTGLLSLLLYSLPFQPARLWVLGGILYIFSLVSFCALLLVHLVRFLV | 47500
74 | PINALCIILSDDSIKALLQEEFPLKQYRDICNKLDVYLSRRRILGILLYMYPT | 72700
75 | MLLPFVCLLFFLLAFLFSLSLSALFCFSKRRLIPILFFIASLLLYNFVFPPFF | 38400
76 | ALYGLQAVVFVVIPLLQIIQIALILCQFFVANYFTIFSFVNVLFIIVAVFAFL | 41400
77 | VDILLKRISTFSYTDSLTMSVAGQLRILYRFINVFYTARDLIGFLALVEKALD | 22700
78 | GAVAADVEDEDADDALEEPAKGKKRKSKVEEDESEAEKPAKKGRGRKSTETNG | 42600
79 | MSSSPTTGTSQDVQNRTVFTSRRRTAVACTNCRRRKLRCIPARVEEPATGPCA | 35800
80 | VALATWVIVIAVLLPTIFLIGFIESYCWFRRMMLGRSALRLGTICWCVMSLWF | 65100
81 | SSIRQMLKISLVRPLHMLLTEPVLFLFAVSLHPFRPRIYLMLEAIPLVFTRLY | 40900
82 | GAGAGGKVGGGAGAGAGAGAGAGHLGGGAEGGGKIGAGAGGKVGGEIGAGGKI | 25000
83 | KEEESNELKSEQEPPSAVESIAAVMTPSDNGSRFYIKRRILIGNVSKYIAPER | 23100
